The values that follow are results of earlier work, collected in PMC3040723.

pKd: −log10 of the molar value.

A word on the pKd: it is the Kd on a negative log10 scale, so that one unit is a factor of ten.

This data set concerns the target IscU (Escherichia coli) (UniProt P0ACD4).

Sequence of HscB (P0A6L9 whole entry): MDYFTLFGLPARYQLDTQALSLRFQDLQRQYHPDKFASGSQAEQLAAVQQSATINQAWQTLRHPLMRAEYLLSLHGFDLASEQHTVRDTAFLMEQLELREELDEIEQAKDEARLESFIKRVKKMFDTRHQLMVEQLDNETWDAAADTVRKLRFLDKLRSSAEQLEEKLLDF
Sequence of IscU (Escherichia coli) (P0ACD4 whole entry): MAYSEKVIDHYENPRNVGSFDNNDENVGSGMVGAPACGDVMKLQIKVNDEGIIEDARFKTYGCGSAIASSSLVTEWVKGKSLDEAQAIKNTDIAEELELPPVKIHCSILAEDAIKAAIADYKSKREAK

Turning to HscB (from UniProt P0A6L9), the pKd is 4.89.
